Reference: US20120321699A1

Tests used:
SSB autoantigen [1] = test: Athena assay, mAb 6.25 ug/ml; positive >50
SSA autoantigen [2] = test: Athena assay, mAb 6.25 ug/ml; positive >50
Histone autoantigen [3] = test: Athena assay, mAb 6.25 ug/ml; positive >50
Sm autoantigen [4] = test: Athena assay, mAb 6.25 ug/ml; positive >50
RNP autoantigen [5] = test: Athena assay, mAb 6.25 ug/ml; positive >50
centromere B autoantigen [6] = test: Athena assay, mAb 6.25 ug/ml; positive >50
Scl 70 autoantigen [7] = test: Athena assay, mAb 6.25 ug/ml; positive >50
Jo 1 autoantigen [8] = test: Athena assay, mAb 6.25 ug/ml; positive >50
SSB autoantigen [9] = test: Athena assay, mAb 12.5 ug/ml; positive >50
SSA autoantigen [10] = test: Athena assay, mAb 12.5 ug/ml; positive >50
Histone autoantigen [11] = test: Athena assay, mAb 12.5 ug/ml; positive >50
Sm autoantigen [12] = test: Athena assay, mAb 12.5 ug/ml; positive >50
RNP autoantigen [13] = test: Athena assay, mAb 12.5 ug/ml; positive >50
centromere B autoantigen [14] = test: Athena assay, mAb 12.5 ug/ml; positive >50
Scl 70 autoantigen [15] = test: Athena assay, mAb 12.5 ug/ml; positive >50
Jo 1 autoantigen [16] = test: Athena assay, mAb 12.5 ug/ml; positive >50
[17] = target: Env of HIV-1 JRCSF.N160K (HIV-1) (UniProt P20871); test: cell-based or functional assay
[18] = target: Env of HIV-1 clade B isolate JR-CSF (HIV-1) (UniProt P20871); test: cell-based or functional assay
[19] = target: Env of HIV-1 JRFL.N160K.E168K (HIV-1); test: cell-based or functional assay
[20] = target: Env of HIV-1 Q23.17.N160K (HIV-1); test: cell-based or functional assay
[21] = target: Env of HIV-1 clade B isolate 7165.18 (HIV-1); test: cell-based or functional assay
[22] = target: Env of HIV-1 clade B isolate JRFL (virus) (HIV-1); test: cell-based or functional assay
[23] = target: Env of HIV-1 clade A isolate Q23.17 (HIV-1); test: cell-based or functional assay
[24] = target: Env of HIV-1 7165.18.N160K (HIV-1); test: cell-based or functional assay
[25] = target: Env of HIV-1 JRFL.E168K (HIV-1); test: cell-based or functional assay
HCV E2 (HCV) = test: Luminex assay, antibody 50 µg/ml
[26] = target: Influenza HA (Wisconsin) (influenza virus); test: Luminex assay, antibody 50 µg/ml
SSB autoantigen [27] = test: Athena assay, mAb 25 ug/ml; positive >50
SSA autoantigen [28] = test: Athena assay, mAb 25 ug/ml; positive >50
Histone autoantigen [29] = test: Athena assay, mAb 25 ug/ml; positive >50
Sm autoantigen [30] = test: Athena assay, mAb 25 ug/ml; positive >50
RNP autoantigen [31] = test: Athena assay, mAb 25 ug/ml; positive >50
centromere B autoantigen [32] = test: Athena assay, mAb 25 ug/ml; positive >50
Scl 70 autoantigen [33] = test: Athena assay, mAb 25 ug/ml; positive >50
Jo 1 autoantigen [34] = test: Athena assay, mAb 25 ug/ml; positive >50
[35] = target: A244gD+ gp120 (herpes simplex virus; HIV-1); test: SPR
[36] = target: HV00043 (63521 TC21 140C) (HIV-1); test: SPR
[37] = target: HV00044 (6240 TZ5 140C) (HIV-1); test: SPR
SSB autoantigen [38] = test: Athena assay, mAb 50 ug/ml; positive >50
SSA autoantigen [39] = test: Athena assay, mAb 50 ug/ml; positive >50
Histone autoantigen [40] = test: Athena assay, mAb 50 ug/ml; positive >50
Sm autoantigen [41] = test: Athena assay, mAb 50 ug/ml; positive >50
RNP autoantigen [42] = test: Athena assay, mAb 50 ug/ml; positive >50
centromere B autoantigen [43] = test: Athena assay, mAb 50 ug/ml; positive >50
Scl 70 autoantigen [44] = test: Athena assay, mAb 50 ug/ml; positive >50
Jo 1 autoantigen [45] = test: Athena assay, mAb 50 ug/ml; positive >50
[46] = target: gp120 (Table 2, strain not given) (HIV-1); test: Luminex bead assay
HIV-1 Env gp41 (HIV-1) = test: Luminex bead assay

**Q.** With PG9 (antibody) as the substance, how does the Autoreactivity (Athena) (SSB autoantigen [1]) read?
**A.** 4

**Q.** What about the Autoreactivity (Athena) (SSA autoantigen [2]) of the same substance?
**A.** 4

**Q.** And the Autoreactivity (Athena) (Histone autoantigen [3])?
**A.** 5

**Q.** What about the Autoreactivity (Athena) (Sm autoantigen [4]) of the same substance?
**A.** 2

**Q.** What about the Autoreactivity (Athena) (RNP autoantigen [5]) of the same substance?
**A.** 3

**Q.** What about the Autoreactivity (Athena) (centromere B autoantigen [6]) of the same substance?
**A.** 4

**Q.** And the Autoreactivity (Athena) (Scl 70 autoantigen [7])?
**A.** 2

**Q.** What about the Autoreactivity (Athena) (Jo 1 autoantigen [8]) of the same substance?
**A.** 2

**Q.** What about the Autoreactivity (Athena) (SSB autoantigen [9]) of the same substance?
**A.** 4

**Q.** And the Autoreactivity (Athena) (SSA autoantigen [10])?
**A.** 5

**Q.** What about the Autoreactivity (Athena) (Histone autoantigen [11]) of the same substance?
**A.** 6

**Q.** And the Autoreactivity (Athena) (Sm autoantigen [12])?
**A.** 3

**Q.** And the Autoreactivity (Athena) (RNP autoantigen [13])?
**A.** 2

**Q.** What about the Autoreactivity (Athena) (centromere B autoantigen [14]) of the same substance?
**A.** 4

**Q.** What about the Autoreactivity (Athena) (Scl 70 autoantigen [15]) of the same substance?
**A.** 2

**Q.** What about the Autoreactivity (Athena) (Jo 1 autoantigen [16]) of the same substance?
**A.** 2

**Q.** What about the IC50 ug/ml (virus neutralization) [17] of the same substance?
**A.** > 50 µg/mL

**Q.** And the IC80 ug/ml (virus neutralization) [17]?
**A.** > 50 µg/mL

**Q.** And the IC50 ug/ml (virus neutralization) [18]?
**A.** 0.003 µg/mL

**Q.** And the IC80 ug/ml (virus neutralization) [18]?
**A.** 0.008 µg/mL

**Q.** What about the IC50 ug/ml (virus neutralization) [19] of the same substance?
**A.** > 50 µg/mL

**Q.** What about the IC80 ug/ml (virus neutralization) [19] of the same substance?
**A.** > 50 µg/mL

**Q.** And the IC50 ug/ml (virus neutralization) [20]?
**A.** > 50 µg/mL

**Q.** What about the IC80 ug/ml (virus neutralization) [20] of the same substance?
**A.** > 50 µg/mL

**Q.** What about the IC50 ug/ml (virus neutralization) [21] of the same substance?
**A.** > 50 µg/mL

**Q.** What about the IC80 ug/ml (virus neutralization) [21] of the same substance?
**A.** > 50 µg/mL

**Q.** What about the IC50 ug/ml (virus neutralization) [22] of the same substance?
**A.** > 50 µg/mL

**Q.** And the IC80 ug/ml (virus neutralization) [22]?
**A.** > 50 µg/mL

**Q.** What about the IC50 ug/ml (virus neutralization) [23] of the same substance?
**A.** 0.002 µg/mL

**Q.** And the IC80 ug/ml (virus neutralization) [23]?
**A.** 0.005 µg/mL

**Q.** And the IC50 ug/ml (virus neutralization) [24]?
**A.** > 50 µg/mL

**Q.** And the IC80 ug/ml (virus neutralization) [24]?
**A.** > 50 µg/mL

**Q.** And the IC50 ug/ml (virus neutralization) [25]?
**A.** 0.008 µg/mL

**Q.** What about the IC80 ug/ml (virus neutralization) [25] of the same substance?
**A.** 0.055 µg/mL

**Q.** And the background substracted RFUs (HCV E2 (HCV))?
**A.** 0 RFU

**Q.** What about the background substracted RFUs [26] of the same substance?
**A.** 0 RFU

**Q.** What about the Autoreactivity (Athena) (SSB autoantigen [27]) of the same substance?
**A.** 6

**Q.** What about the Autoreactivity (Athena) (SSA autoantigen [28]) of the same substance?
**A.** 5

**Q.** What about the Autoreactivity (Athena) (Histone autoantigen [29]) of the same substance?
**A.** 9

**Q.** What about the Autoreactivity (Athena) (Sm autoantigen [30]) of the same substance?
**A.** 3

**Q.** And the Autoreactivity (Athena) (RNP autoantigen [31])?
**A.** 2

**Q.** And the Autoreactivity (Athena) (centromere B autoantigen [32])?
**A.** 5

**Q.** And the Autoreactivity (Athena) (Scl 70 autoantigen [33])?
**A.** 1

**Q.** What about the Autoreactivity (Athena) (Jo 1 autoantigen [34]) of the same substance?
**A.** 2

**Q.** What about the Kd [35] of the same substance?
**A.** 4.8 nM

**Q.** And the Kd [36]?
**A.** 0.75 nM

**Q.** What about the Kd [37] of the same substance?
**A.** 210 nM

**Q.** What about the Autoreactivity (Athena) (SSB autoantigen [38]) of the same substance?
**A.** 5

**Q.** What about the Autoreactivity (Athena) (SSA autoantigen [39]) of the same substance?
**A.** 5

**Q.** And the Autoreactivity (Athena) (Histone autoantigen [40])?
**A.** 7

**Q.** What about the Autoreactivity (Athena) (Sm autoantigen [41]) of the same substance?
**A.** 2

**Q.** What about the Autoreactivity (Athena) (RNP autoantigen [42]) of the same substance?
**A.** 3

**Q.** And the Autoreactivity (Athena) (centromere B autoantigen [43])?
**A.** 5

**Q.** What about the Autoreactivity (Athena) (Scl 70 autoantigen [44]) of the same substance?
**A.** 2

**Q.** What about the Autoreactivity (Athena) (Jo 1 autoantigen [45]) of the same substance?
**A.** 1

**Q.** Which Reactivity in Luminex Units (Luminex Units) [46] does the source give for 1b12 original (antibody) here?
**A.** 5110

**Q.** Which Reactivity in Luminex Units (Luminex Units) (HIV-1 Env gp41 (HIV-1)) does the source give for 2F5 (antibody) here?
**A.** 32700

**Q.** And the Reactivity in Luminex Units (Luminex Units) [46]?
**A.** 9240
